Experimental data reported in article PMC12084297, “Cytoplasmic connexin43-microtubule interactions promote glioblastoma stem-like cell maintenance and tumorigenicity” (Cell Death & Disease, 2025).
Ends that are not written are not given here. * marks the point of attachment. Biotin = O=C1N[C@H]2[C@H](CS[C@H]2CCCCC(=O)*)N1

Experiments:
[1] = target: α-tubulin (human (endogenous in VTC-037 GSCs), UniProt P68363 1-451); assay: cellular thermal shift assay (CETSA); fresh VTC-037 GSC lysates in non-denaturing buffer treated 1 h with 3-fold dilutions (222.2, 74.0, 24.7, 8.2 and 2.7 nM) of peptide, heat challenge at 57 °C for 20 min, centrifugation, immunoblot of the stable protein normalised to DMSO control; EC50 of target engagement; settings: one partner purified
[2] = target: β-tubulin (human (endogenous in VTC-001 and …, UniProt P07437 1-444)); assay: as above; settings: one partner purified
Chain of β-tubulin (human (P07437 whole entry): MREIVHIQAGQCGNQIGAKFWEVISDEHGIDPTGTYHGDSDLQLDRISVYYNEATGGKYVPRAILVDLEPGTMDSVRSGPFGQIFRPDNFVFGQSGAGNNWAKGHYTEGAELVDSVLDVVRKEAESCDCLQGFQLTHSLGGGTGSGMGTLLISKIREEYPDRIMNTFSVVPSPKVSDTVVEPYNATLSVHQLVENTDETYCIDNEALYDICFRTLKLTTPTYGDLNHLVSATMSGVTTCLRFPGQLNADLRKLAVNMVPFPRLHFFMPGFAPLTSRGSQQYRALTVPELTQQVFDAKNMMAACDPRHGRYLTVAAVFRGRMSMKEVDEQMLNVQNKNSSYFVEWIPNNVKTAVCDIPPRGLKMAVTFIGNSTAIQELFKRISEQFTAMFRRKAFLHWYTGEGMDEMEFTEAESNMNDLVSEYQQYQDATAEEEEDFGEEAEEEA

Chain of α-tubulin (P68363 whole entry): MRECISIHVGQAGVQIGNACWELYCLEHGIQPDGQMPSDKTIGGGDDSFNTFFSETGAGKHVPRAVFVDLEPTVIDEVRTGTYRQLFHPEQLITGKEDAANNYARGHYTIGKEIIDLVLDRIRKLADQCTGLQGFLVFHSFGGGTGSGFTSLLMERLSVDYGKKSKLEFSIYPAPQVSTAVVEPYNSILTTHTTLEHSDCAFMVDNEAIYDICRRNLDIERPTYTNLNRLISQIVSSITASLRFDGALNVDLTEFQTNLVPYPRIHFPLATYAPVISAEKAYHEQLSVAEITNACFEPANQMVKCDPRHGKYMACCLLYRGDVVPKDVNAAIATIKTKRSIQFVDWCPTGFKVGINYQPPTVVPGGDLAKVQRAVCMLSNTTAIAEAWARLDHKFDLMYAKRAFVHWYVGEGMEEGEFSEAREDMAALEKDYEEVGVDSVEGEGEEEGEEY

EC50 [1]: > 200 nM
EC50 [2]: > 200 nM
B1: JM2-scrambled peptide (peptide)
chain: Biotin-RQPKIWFPNRRKPWKKGSDVFKRKFVDRKVG
